Data as given in article PMC5558430 (The Biochemical journal, 2017).

Tests used:
[1] = target: Neisseria gonorrhoeae GCYH-IB His246Asp mutant (Neisseria gonorrhoeae) (UniProt Q5F9K6); test: SEC
[2] = target: Neisseria gonorrhoeae GCYH-IB His246Asn mutant (Neisseria gonorrhoeae) (UniProt Q5F9K6); test: SEC
[3] = target: Neisseria gonorrhoeae GCYH-IB Glu243Ala mutant (Neisseria gonorrhoeae) (UniProt Q5F9K6); test: SEC
[4] = target: T1, GTP cyclohydrolase IB (GCYH-IB) (Neisseria gonorrhoeae, UniProt Q5F9K6); test: competitive inhibition kinetics, fluorescence assay of neopterin; format: biochemical
T1 sequence (Q5F9K6 1-257): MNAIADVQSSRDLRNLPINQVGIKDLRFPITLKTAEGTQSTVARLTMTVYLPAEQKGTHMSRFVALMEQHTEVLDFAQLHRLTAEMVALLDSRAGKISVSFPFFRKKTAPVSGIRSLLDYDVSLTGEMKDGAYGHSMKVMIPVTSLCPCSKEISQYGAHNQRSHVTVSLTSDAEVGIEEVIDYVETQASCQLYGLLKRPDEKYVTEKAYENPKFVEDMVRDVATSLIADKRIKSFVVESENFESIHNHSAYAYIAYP

[5] = target: Neisseria gonorrhoeae GCYH-IB Cys149Ser mutant (Neisseria gonorrhoeae) (UniProt Q5F9K6); test: SEC
[6] = target: Neisseria gonorrhoeae GCYH-IB His246Lys mutant (Neisseria gonorrhoeae) (UniProt Q5F9K6); test: SEC
[7] = target: Neisseria gonorrhoeae GCYH-IB His246Ala mutant (Neisseria gonorrhoeae) (UniProt Q5F9K6); test: SEC
[8] = target: Neisseria gonorrhoeae GCYH-IB His246Gln mutant (Neisseria gonorrhoeae) (UniProt Q5F9K6); test: SEC
[9] = target: Neisseria gonorrhoeae GCYH-IB Cys149Ala mutant (Neisseria gonorrhoeae) (UniProt Q5F9K6); test: SEC
[10] = target: GTP cyclohydrolase IB (GCYH-IB) (Neisseria gonorrhoeae, UniProt Q5F9K6); test: X-ray crystal structure at […] Å; format: biochemical
[11] = target: Neisseria gonorrhoeae GCYH-IB Glu152Ala mutant (Neisseria gonorrhoeae) (UniProt Q5F9K6); test: SEC
[12] = substrate: Nc1nc2c(ncn2[C@@H]2O[C@H](COP(=O)(O)OP(=O)(O)OP(=O)(O)O)[C@@H](O)[C@H]2O)c(=O)[nH]1; test: steady-state kinetics; format: biochemical, Neisseria gonorrhoeae; details: Mn2+ active site
[13] = target: the molecule itself; test: crystal structure

Neisseria gonorrhoeae GCYH-IB His246Asp mutant (from UniProt Q5F9K6 1-257) (enzyme)
stoichiometry N [1]: 4

Neisseria gonorrhoeae GCYH-IB His246Asn mutant (from UniProt Q5F9K6 1-257) (enzyme)
stoichiometry N [2]: 4

Neisseria gonorrhoeae GCYH-IB Glu243Ala mutant (from UniProt Q5F9K6 1-257) (enzyme)
stoichiometry N [3]: 4

Nc1nc2c(ccn2[C@@H]2O[C@H](COP(=O)(O)OP(=O)(O)OP(=O)(O)O)[C@@H](O)[C@H]2O)c(=O)[nH]1 [7-deaza-GTP]
Ki [4]: 45.7 µM

Neisseria gonorrhoeae GCYH-IB Cys149Ser mutant (from UniProt Q5F9K6 1-257) (enzyme)
stoichiometry N [5]: 4

Neisseria gonorrhoeae GCYH-IB His246Lys mutant (from UniProt Q5F9K6 1-257) (enzyme)
stoichiometry N [6]: 4

Neisseria gonorrhoeae GCYH-IB His246Ala mutant (from UniProt Q5F9K6 1-257) (enzyme)
stoichiometry N [7]: 4

Neisseria gonorrhoeae GCYH-IB His246Gln mutant (from UniProt Q5F9K6 1-257) (enzyme)
stoichiometry N [8]: 4

Nc1nc2c(ncn2[C@H]2C[C@H](O)[C@@H](COP(=O)(O)OP(=O)(O)OP(=O)(O)O)O2)c(=O)[nH]1 [2′-deoxyGTP]
Ki [4]: 164 µM

Neisseria gonorrhoeae GCYH-IB Cys149Ala mutant (from UniProt Q5F9K6 1-257) (enzyme)
stoichiometry N [9]: 4

Nc1nc2c([nH]c(=O)n2[C@@H]2O[C@H](CO[P@@](=O)(O)O[P@@](=O)(O)OP(=O)(O)O)[C@@H](O)[C@H]2O)c(=O)[nH]1 [8-oxo-GTP]
Ki [10]: 0.149 µM

Neisseria gonorrhoeae GCYH-IB Glu152Ala mutant (from UniProt Q5F9K6 1-257) (enzyme)
stoichiometry N [11]: 4

B1: GTP cyclohydrolase IB (GCYH-IB) (Neisseria gonorrhoeae FA 1090) (protein)
chain: T1 sequence (Q5F9K6 1-257)
Km [12]: 9.15 µM

B2: Neisseria gonorrhoeae GTP cyclohydrolase IB, wild type (enzyme)
chain: T1 sequence (Q5F9K6 1-257)
modifications: S-nitrosylated Cys149 (as purified from E. coli)
stoichiometry N [13]: 4
